Experiment [1] has as its target α subunit of rat LSR (product of cDNA LSR-Rn-2097) (rat) (UniProt Q9WU74). Description: flotation of 35S-labelled in vitro translated LSR with 100 µg/ml LDL and 1 mM oleate, against no oleate.
Experiment [2] has as its target β subunit of rat LSR (product of cDNA LSR-Rn-1893) (rat) (UniProt Q9WU74). Described as above.

β subunit of rat LSR (product of cDNA LSR-Rn-1893) (rat), sequence (Q9WU74 other isoform, or with tags, fused parts or gaps limits assumed): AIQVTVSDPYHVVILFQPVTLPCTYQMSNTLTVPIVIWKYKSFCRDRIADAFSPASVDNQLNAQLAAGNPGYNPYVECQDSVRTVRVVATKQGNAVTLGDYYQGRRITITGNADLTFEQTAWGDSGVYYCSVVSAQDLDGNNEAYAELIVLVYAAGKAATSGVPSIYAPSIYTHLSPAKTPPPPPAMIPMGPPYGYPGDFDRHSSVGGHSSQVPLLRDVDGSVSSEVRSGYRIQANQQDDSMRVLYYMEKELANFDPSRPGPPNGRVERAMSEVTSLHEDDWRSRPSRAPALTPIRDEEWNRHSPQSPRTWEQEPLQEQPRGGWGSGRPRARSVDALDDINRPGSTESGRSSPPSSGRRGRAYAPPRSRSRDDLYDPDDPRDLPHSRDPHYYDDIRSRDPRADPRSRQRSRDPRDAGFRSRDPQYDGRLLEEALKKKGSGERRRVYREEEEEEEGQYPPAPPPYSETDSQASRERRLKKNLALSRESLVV
α subunit of rat LSR (product of cDNA LSR-Rn-2097) (rat), sequence (Q9WU74 36-593 limits assumed): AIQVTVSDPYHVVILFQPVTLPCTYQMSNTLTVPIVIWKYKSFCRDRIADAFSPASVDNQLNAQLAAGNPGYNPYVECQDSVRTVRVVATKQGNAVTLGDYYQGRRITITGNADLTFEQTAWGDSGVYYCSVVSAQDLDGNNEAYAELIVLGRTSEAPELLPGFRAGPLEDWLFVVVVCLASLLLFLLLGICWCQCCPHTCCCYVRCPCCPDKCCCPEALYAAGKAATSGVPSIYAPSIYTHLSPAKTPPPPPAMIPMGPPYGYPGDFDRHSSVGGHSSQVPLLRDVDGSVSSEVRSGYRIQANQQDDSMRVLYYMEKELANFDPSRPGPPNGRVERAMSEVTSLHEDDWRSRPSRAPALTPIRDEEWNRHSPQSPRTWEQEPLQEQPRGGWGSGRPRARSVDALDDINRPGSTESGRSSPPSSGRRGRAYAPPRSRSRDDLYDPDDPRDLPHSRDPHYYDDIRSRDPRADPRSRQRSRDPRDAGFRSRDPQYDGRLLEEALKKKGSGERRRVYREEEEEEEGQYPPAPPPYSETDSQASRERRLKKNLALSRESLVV

Regarding “LDL (low-density lipoprotein, 1.025<d<1.055 g/ml) isolated from plasma of volunteers, P04114 28-4563”, the factor of increase of LDL binding by oleate came out at 5 fold in experiment [1] and 2 fold in experiment [2].
